From patent US10712339B2, “Engineering of a novel breast tumor microenvironment on a microfluidic chip” (Arizona Board of Regents on behalf of Arizona State …, priority 2014, dated 2020)

System: SUM-159 breast cancer cells
Test: Chemoinvasion of breast cancer cells in the microfluidic platform
Format: cell-based
Description: We encapsulated highly invasive SUM-159 breast cancer cells within our platform. Cells were encapsulated in a mixture of Collagen:Matrigel at a ratio of 1:1 (final collagen density is 1 mg/mL) and the solution was injected into the tumor region while cell-free collagen type I (2 mg/mL) was injected into the stromal region. In one platform, 50 ng/mL of epidermal growth factor (EGF) was injected to the side channels to stimulate chemoinvasion, while in a control platform, no EGF was injected. We observed the migration of the cells throughout the stromal region over the course of four days in both conditions.
There was noticeable collagen deformation showing that the cells are actively sensing their biophysical environment and reacting to it. […] Cells without EGF stimulation did invade as well but not by the same distance.

[1] = 50 ng/mL EGF vs -EGF control, day 4

B1: EGF: epidermal growth factor injected to the side channels to stimulate chemoinvasion (protein, UniProt P01133 23-1207, looked up)
Pro-epidermal growth factor: PQHWSCPEGTLAGNGNSTCVGPAPFLIFSHGNSIFRIDTEGTNYEQLVVDAGVSVIMDFHYNEKRIYWVDLERQLLQRVFLNGSRQERVCNIEKNVSGMAINWINEEVIWSNQQEGIITVTDMKGNNSHILLSALKYPANVAVDPVERFIFWSSEVAGSLYRADLDGVGVKALLETSEKITAVSLDVLDKRLFWIQYNREGSNSLICSCDYDGGSVHISKHPTQHNLFAMSLFGDRIFYSTWKMKTIWIANKHTGKDMVRINLHSSFVPLGELKVVHPLAQPKAEDDTWEPEQKLCKLRKGNCSSTVCGQDLQSHLCMCAEGYALSRDRKYCEDVNECAFWNHGCTLGCKNTPGSYYCTCPVGFVLLPDGKRCHQLVSCPRNVSECSHDCVLTSEGPLCFCPEGSVLERDGKTCSGCSSPDNGGCSQLCVPLSPVSWECDCFPGYDLQLDEKSCAASGPQPFLLFANSQDIRHMHFDGTDYGTLLSQQMGMVYALDHDPVENKIYFAHTALKWIERANMDGSQRERLIEEGVDVPEGLAVDWIGRRFYWTDRGKSLIGRSDLNGKRSKIITKENISQPRGIAVHPMAKRLFWTDTGINPRIESSSLQGLGRLVIASSDLIWPSGITIDFLTDKLYWCDAKQSVIEMANLDGSKRRRLTQNDVGHPFAVAVFEDYVWFSDWAMPSVMRVNKRTGKDRVRLQGSMLKPSSLVVVHPLAKPGADPCLYQNGGCEHICKKRLGTAWCSCREGFMKASDGKTCLALDGHQLLAGGEVDLKNQVTPLDILSKTRVSEDNITESQHMLVAEIMVSDQDDCAPVGCSMYARCISEGEDATCQCLKGFAGDGKLCSDIDECEMGVPVCPPASSKCINTEGGYVCRCSEGYQGDGIHCLDIDECQLGEHSCGENASCTNTEGGYTCMCAGRLSEPGLICPDSTPPPHLREDDHHYSVRNSDSECPLSHDGYCLHDGVCMYIEALDKYACNCVVGYIGERCQYRDLKWWELRHAGHGQQQKVIVVAVCVVVLVMLLLLSLWGAHYYRTQKLLSKNPKNPYEESSRDVRSRRPADTEDGMSSCPQPWFVVIKEHQDLKNGGQPVAGEDGQAADGSMQPTSWRQEPQLCGMGTEQGCWIPVSSDKGSCPQVMERSFHMPSYGTQTLEGGVEKPHSLLSANPLWQQRALDPPHQMELTQ
modifications: Pro-epidermal growth factor
notes: epidermal growth factor injected to the side channels to stimulate chemoinvasion
invasion distance into the stromal region (50 ng/mL EGF in side channels vs -EGF control, by day 3): invaded further
cell count as a function of migration distance [1]: more cells had migrated a greater distance
number of cells in the media channels [1]: a higher number of cells were seen in the channels
